In publication PMC5805711 (Scientific Reports, 2018) one finds Kd data, which are given here for one molecule.

Experiment [1] concerns the target T1, ubiquitin phosphorylated at serine-65 (pUb) (UniProt P0CG48 1-76, phosphoserine at 65).
T1 construct: ubiquitin, the cut product of a ubiquitin precursor, phosphorylated at S65; Uniformly 15N-labelled for NMR; In solution two conformers in slow, pH-dependent exchange: native-like pUb^nat and alternate pUb^alt; both are this one molecule; also called S65 pUb; phosphorylated Ub
Put plainly: NMR titration; 15N-labeled Ub variant titrated with unlabeled UBA; amide CSPs in 1H-15N spectra, global fit to a single-site binding model; 23 °C, 20 mM sodium phosphate pH 6.8, 0.02% NaN3, 7% D2O. The following applies: both partners purified.

The target of experiment [2] is T2, wild-type ubiquitin (Ub^WT) (UniProt P0CG48 1-76).
T2 construct: ubiquitin, the cut product of a ubiquitin precursor; last residue G76; Uniformly 15N-labelled for NMR; also called WT Ub; source: grown and purified using the standard Ub purification protocol; grown in 15N-enriched minimal media for NMR
The description is as above. As to conditions: both partners purified.

B1: ubiquitin-associated domain (UBA) of human ubiquilin-1/hPLIC1, V545Y (domain or fragment, UniProt Q9UMX0 545-586, looked up)
chain: YRFQQQLEQLSAMGFLNREANLQALIATGGDINAAIERLLGS
notes: UBA domain of human ubiquilin-1 (hPLIC1) with V545Y; V545Y was introduced to allow concentration determination by absorbance at 280 nm; Unlabelled in the titrations; also called ubiquilin-1 UBA
As to B1, the results for the equilibrium dissociation constant (Kd) in experiment [1] and in experiment [2] were 8 ± 2.5 µM and 4.9 ± 1.2 µM, respectively.

The Kd is the free concentration of one partner at which half of the binding sites on the other are occupied at equilibrium, for simple one-to-one binding. Lower therefore signals tighter binding.
